Assay results published in paper PMC2746283, “BtubA-BtubB Heterodimer Is an Essential Intermediate in Protofilament Assembly” (PLoS ONE, 2009).
Where a chain is given by its changes, count along the chain named. Names may count otherwise.

B1: BtubB, wild type (natural protein)
chain: VREILSIHVGQCGNQIADSFWRLALREHGLTEAGTLKEGSNAAANSNMEVFFHKVRDGKYVPRAVLVDLEPGVIARIEGGDMSQLFDESSIVRKIPGAANNWARGYNVEGEKVIDQIMNVIDSAVEKTKGLQGFLMTHSIGGGSGSGLGSLILERLRQAYPKKRIFTFSVVPSPLISDSAVEPYNAILTLQRILDNADGAVLLDNEALFRIAKAKLNRSPNYMDLNNIIALIVSSVTASLRFPGKLNTDLSEFVTNLVPFPGNHFLTASFAPMRGAGQEGQVRTNFPDLARETFAQDNFTAAIDWQQGVYLAASALFRGDVKAKDVDENMATIRKSLNYASYMPASGGLKLGYAETAPEGFASSGLALVNHTGIAAVFERLIAQFDIMFDNHAYTHWYENAGVSRDMMAKARNQIATLAQSYRDAS
notes: BtubB, bacterial tubulin-like protein of Prosthecobacter; the species is printed only for BtubA (P. dejongeii); also called B-wt; BtubB WT; source: E. coli, purified as described previously [3], with an added Sephacryl HR-100 column step; not shown: His tag, N-terminal, kept
B2: BtubB-N100E (natural protein)
chain: B1 chain with N100E
notes: BtubB of Prosthecobacter (species printed only for BtubA: P. dejongeii) with the point mutation N100E; also called within-dimer mutant of BtubB; source: E. coli, purified as described previously [3], with an added Sephacryl HR-100 column step; not shown: His tag, N-terminal, kept
B3: BtubB-D249K (natural protein)
chain: B1 chain with D249K
notes: BtubB of Prosthecobacter (species printed only for BtubA: P. dejongeii) with the point mutation D249K; The running text twice calls it BtubA-D249K; also called between-dimer mutant on the bottom of BtubB; source: E. coli, purified as described previously [3], with an added Sephacryl HR-100 column step; not shown: His tag, N-terminal, kept
B4: BtubA-V179K (natural protein, P. dejongeii)
chain: MKVNNTIVVSIGQAGNQIAASFWKTVCLEHGIDPLTGQTAPGVAPRGNWSSFFSKLGESSSGSYVPRAIMVDLEPSVIDNVKATSGSLFNPANLISRTEGAGGNFAVGYLGAGREVLPEVMSRLDYEIDKCDNVGGIIVLHAIGGGTGSGFGALLIESLKEKYGEIPVLSCAVLPSPQKSSVVTEPYNTVFALNTLRRSADACLIFDNEALFDLAHRKWNIESPTVDDLNLLITEALAGITASMRFSGFLTVEITLRELLTNLVPQPSLHFLMCAFAPLTPPDRSKFEELGIEEMIKSLFDNGSVFAACSPMEGRFLSTAVLYRGIMEDKPLADAALAAMREKLPLTYWIPTAFKIGYVEQPGISHRKSMVLLANNTEIARVLDRICHNFDKLWQRKAFANWYLNEGMSEEQINVLRASAQELVQSYQVAEESGAKAKVQDSAGDTGMRAAAAGVSDDARGSMSLRDLVDRRR
B5: BtubA, wild type (natural protein, P. dejongeii)
chain: B4 chain with K179V
B6: BtubA-E258K (natural protein, P. dejongeii)
chain: B4 chain with K179V, E258K

Columns and labels:
BtubA, wild type = biological target: B5; assay: AUC; sedimentation equilibrium of BtubA + BtubB mixtures, 20°C, 10,000-14,000 rpm, HMK buffer (50 mM Hepes, 5 mM MgAc, 350 mM KAc, 1 mM EGTA, pH 7.7), no GTP; molar ratios 1:4 to 4:1, each protein 8 to 32 µM; global fit to a monomer-dimer model (HeteroAnalysis); conditions: both partners purified
BtubA-E258K = biological target: B6; assay: as above; conditions: both partners purified
BtubA-V179K = biological target: B4; assay: as above; conditions: both partners purified
BtubB-D249K = biological target: B3; assay: cell-based or functional assay
BtubB, wild type = biological target: B1; assay: cell-based or functional assay
BtubB-N100E = biological target: B2; assay: cell-based or functional assay

| GTPase activity of the 1:1 mixture, per BtubB (GTP regeneration, coupled NADH assay, ∼29°C) (BtubB-D249K) [GTP min^−1 Btub^−1] | GTPase activity of the 1:1 mixture, per BtubB (GTP regeneration, coupled NADH assay, ∼29°C) (BtubB, wild type) [GTP min^−1 Btub^−1] | Binder | further results |
| --- | --- | --- | --- |
| – | – | B1 | Kd (BtubA, wild type): 7.3 µM |
| – | – | B2 | Kd (BtubA-E258K): 61 µM |
| – | – | B3 | Kd (BtubA-V179K): 3.2 µM |
| 0.079 | 0.072 | B4 | – |
| 0.077 | – | B5 | – |
| – | 0.088 | B6 | GTPase activity of the 1:1 mixture, per BtubB (GTP regeneration, coupled NADH assay, ∼29°C) (BtubB-N100E): 0.098 GTP min^−1 Btub^−1 |
